Legend:
Assay in all cases: cell_activity
[1] = test system: FucT1_T01 TALEN right monomer (synthetic); details: yeast assay as pair, full target SEQ 66 (right half printed differently from Table 1), 37 C; 0.6 at 30 C
[2] = test system: XylT_T03 TALEN right monomer (synthetic)
[3] = test system: XylT_T04 TALEN right monomer (synthetic)
[4] = test system: FucT1_T02/FucT2_T02 TALEN right monomer (synthetic)
[5] = test system: FucT2_T01 TALEN right monomer (synthetic); details: yeast assay as pair, full target SEQ 67, 37 C; 0.8 at 30 C
[6] = test system: XylT_T04 TALEN left monomer (synthetic)
[7] = test system: FucT1_T01 TALEN left monomer (synthetic); details: yeast assay as pair, full target SEQ 66 (right half printed with CTAAGC there vs AATAAGC in Table 1), 37 C; 0.6 at 30 C
[8] = test system: FucT2_T01 TALEN left monomer (synthetic); details: yeast assay as pair, full target SEQ 67, 37 C; 0.8 at 30 C
[9] = test system: FucT1_T02 TALEN left monomer (synthetic); details: for activity: N. benthamiana protoplasts
[10] = test system: FucT2_T02 TALEN left monomer (synthetic); details: for activity: N. benthamiana protoplasts
[11] = test system: XylT_T03 TALEN left monomer (synthetic)
[12] = test system: FucT_T04 TALEN left monomer (synthetic); details: yeast assay as pair, targets SEQ 70 and 71 (same value), 37 C; 0.5 at 30 C
[13] = test system: FucT_T04 TALEN right monomer (synthetic); details: yeast assay as pair, targets SEQ 70 and 71 (same value), 37 C; 0.5 at 30 C
[14] = N. benthamiana protoplasts, pair, XylT1 locus, XylT2 63.9%
[15] = yeast assay as pair, full target SEQ 65, 37 C, 0.9 at 30 C

AATAAGCAATGGCGCAA (double strand) [FucT1_T01 right half-site (top strand as printed)]
activity (relative to I-SceI) [1]: 0.8

ATCACTCTCTATCTCTA (double strand) [XylT_T03 right half-site (top strand as printed)]
activity ([2]; N. benthamiana protoplasts, pair, XylT1 locus, XylT2 28.2%): 34.4 % NHEJ | activity (relative to I-SceI) ([2]; yeast assay as pair, full target SEQ 64, 37 C, 0.7 at 30 C): 0.9

CTCTACTTCTCTTCCCA (double strand) [XylT_T04 right half-site (top strand as printed)]
activity [3, 14]: 73.8 % NHEJ | activity (relative to I-SceI) [3, 15]: 0.9

CTCTGTTCGTTGCCCTA (double strand) [FucT_T02 right half-site (top strand as printed)]
activity ([4]; N. benthamiana protoplasts, pair FucT1_T02 at FucT1, 24.7% at FucT2, with FucT2_T02 left monomer 46.5/45.0%): 39.2 % NHEJ | activity (relative to I-SceI) ([4]; yeast assay as pair with FucT1 or FucT2 left monomer, targets SEQ 68 and 69, 37 C, 0.7 at 30 C): 0.9

GATAAACAATGGCGCAA (double strand) [FucT2_T01 right half-site (top strand as printed)]
activity (relative to I-SceI) [5]: 0.9

TCTCTTCGCTCTCAACT (double strand) [XylT_T04 left half-site]
activity [6, 14]: 73.8 % NHEJ | activity (relative to I-SceI) [6, 15]: 0.9

TGAGATCGGCGTCAAAT (double strand) [FucT1_T01 left half-site]
activity (relative to I-SceI) [7]: 0.8

TGAGATCGTCGTCAAAT (double strand) [FucT2_T01 left half-site]
activity (relative to I-SceI) [8]: 0.9

TTCAAACGCACCCAATA (double strand) [FucT1_T02 left half-site]
activity ([9]; pair FucT1_T02, FucT1 locus, control 0.79%): 39.2 % NHEJ | activity (relative to I-SceI) ([9]; yeast assay as pair, full target SEQ 68, 37 C, 0.7 at 30 C): 0.9 | activity ([10]; pair FucT2_T02, FucT1 locus (1-bp mismatch), control 0.79%): 46.5 % NHEJ

TTCAAACGCACCCGATA (double strand) [FucT2_T02 left half-site]
activity ([9]; pair FucT1_T02, FucT2 locus (1-bp mismatch), control 0.14%): 24.7 % NHEJ | activity ([10]; pair FucT2_T02, FucT2 locus, control 0.14%): 45 % NHEJ | activity (relative to I-SceI) ([10]; yeast assay as pair, full target SEQ 69, 37 C, 0.7 at 30 C): 0.9

TTCTTGTTTCTCTCTTC (double strand) [XylT_T03 left half-site]
activity ([11]; N. benthamiana protoplasts, pair, XylT1 locus, XylT2 28.2%, controls 0.36/0.06%): 34.4 % NHEJ | activity (relative to I-SceI) ([11]; yeast beta-galactosidase assay as pair, full target SEQ 64, 37 C, 0.7 at 30 C): 0.9

TTGCCTCTGTTCGTTGC (double strand) [FucT_T04 left half-site]
activity (relative to I-SceI) [12]: 0.6

TTTCTGGTTCGACTCGA (double strand) [FucT_T04 right half-site (top strand as printed)]
activity (relative to I-SceI) [13]: 0.6

From patent US20140120578
